Data taken from article PMC11189300 (2024).
Values belong to the binder of their own block, whether it stands above or below them.

B5: KNL1 (construct of the BLI titrations with ZWINT) (domain or fragment)
chain: GKLVQSAQNEREKLQIKIDEMDKILKKIDNCLTEMETETKNLEDEEKNNPVEEWDSEMRAAEKELEQLKTEEEELQRNLLELEVQKEQTLAQIDFMQKQRNRTEELLDQLSLSEWDVVEWSDDQAVFTFVYDTIQLTITFEESVVGFPFLDKRYRKIVDVNFQSLLDEDQAPPSSLLVHKLIFQYVEEKESWKKTCTTQHQLPKMLEEFSLVVHHCRLLGEEIEYLKRWGPNYNLMNIDINNNELRLLFSSSAAFAKFEITLFLSAYYPSVPLPSTIQNHVGNTSQDDIATILSKVPLENNYLKNVVKQIYQDLFQDCHFYH

Tests used:
[1] = target: B5; experiment: BLI; Kd2 (second site)
[2] = target: B5; experiment: BLI; Kd1
[3] = target: T1, Mis12 complex (Mis12C), full length: MIS12, PMF1, NSL1, DSN1 (human, UniProt Q9H081 1-205; Q6P1K2 1-205; Q96IY1 1-281; Q9H410 1-356); experiment: BLI
T1 chain 1: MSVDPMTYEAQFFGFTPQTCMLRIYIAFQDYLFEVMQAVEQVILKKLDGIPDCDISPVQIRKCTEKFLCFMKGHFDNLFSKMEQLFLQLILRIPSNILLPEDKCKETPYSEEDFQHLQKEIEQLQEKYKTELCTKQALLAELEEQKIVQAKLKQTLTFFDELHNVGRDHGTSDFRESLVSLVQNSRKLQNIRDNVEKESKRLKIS
T1 chain 2: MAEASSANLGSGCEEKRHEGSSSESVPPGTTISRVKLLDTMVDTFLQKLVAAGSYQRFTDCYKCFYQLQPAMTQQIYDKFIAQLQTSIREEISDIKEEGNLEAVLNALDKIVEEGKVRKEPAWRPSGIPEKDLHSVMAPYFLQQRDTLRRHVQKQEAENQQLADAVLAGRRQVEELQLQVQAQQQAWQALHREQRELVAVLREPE
T1 chain 3: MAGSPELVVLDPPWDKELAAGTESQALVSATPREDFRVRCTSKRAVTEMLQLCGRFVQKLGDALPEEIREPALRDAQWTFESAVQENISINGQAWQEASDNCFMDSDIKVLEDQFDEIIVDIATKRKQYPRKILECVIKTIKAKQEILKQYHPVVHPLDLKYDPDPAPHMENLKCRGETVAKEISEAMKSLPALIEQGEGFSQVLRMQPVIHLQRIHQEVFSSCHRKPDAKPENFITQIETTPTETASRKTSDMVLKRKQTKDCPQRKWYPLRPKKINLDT
T1 chain 4: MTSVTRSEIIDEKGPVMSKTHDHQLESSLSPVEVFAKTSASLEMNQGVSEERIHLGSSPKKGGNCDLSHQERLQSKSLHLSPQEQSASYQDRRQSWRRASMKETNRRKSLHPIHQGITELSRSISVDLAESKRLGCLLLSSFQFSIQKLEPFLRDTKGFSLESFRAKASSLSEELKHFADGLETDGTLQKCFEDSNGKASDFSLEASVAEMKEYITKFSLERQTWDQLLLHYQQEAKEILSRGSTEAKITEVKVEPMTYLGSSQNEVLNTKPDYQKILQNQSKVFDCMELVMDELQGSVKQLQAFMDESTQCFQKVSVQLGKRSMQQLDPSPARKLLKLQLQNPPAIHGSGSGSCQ

[4] = target: Mis12C^M1 (human, UniProt Q9H081 1-205; Q6P1K2 1-205; Q96IY1 1-281; Q9H410 1-356); experiment: ITC
[5] = target: Mis12C^M2 (human, UniProt Q9H081 1-205; Q6P1K2 1-205; Q96IY1 1-281; Q9H410 1-356); experiment: ITC
[6] = target: T2, Mis12C with KNL1_(2,026–2,342) bound (human, UniProt Q9H081 1-205; Q6P1K2 1-205; Q96IY1 1-281; Q9H410 1-356; Q8NG31 2026-2342); experiment: BLI
T2 chain 1: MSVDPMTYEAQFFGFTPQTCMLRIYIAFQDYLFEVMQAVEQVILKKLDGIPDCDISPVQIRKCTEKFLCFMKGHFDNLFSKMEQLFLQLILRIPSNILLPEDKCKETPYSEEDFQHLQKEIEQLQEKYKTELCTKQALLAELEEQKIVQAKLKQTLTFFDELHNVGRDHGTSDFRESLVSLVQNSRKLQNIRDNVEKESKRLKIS
T2 chain 2: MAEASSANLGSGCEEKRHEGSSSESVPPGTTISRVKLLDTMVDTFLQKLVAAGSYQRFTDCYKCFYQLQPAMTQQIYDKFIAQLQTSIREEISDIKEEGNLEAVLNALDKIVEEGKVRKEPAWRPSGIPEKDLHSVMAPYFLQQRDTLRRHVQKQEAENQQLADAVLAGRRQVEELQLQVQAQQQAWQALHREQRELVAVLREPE
T2 chain 3: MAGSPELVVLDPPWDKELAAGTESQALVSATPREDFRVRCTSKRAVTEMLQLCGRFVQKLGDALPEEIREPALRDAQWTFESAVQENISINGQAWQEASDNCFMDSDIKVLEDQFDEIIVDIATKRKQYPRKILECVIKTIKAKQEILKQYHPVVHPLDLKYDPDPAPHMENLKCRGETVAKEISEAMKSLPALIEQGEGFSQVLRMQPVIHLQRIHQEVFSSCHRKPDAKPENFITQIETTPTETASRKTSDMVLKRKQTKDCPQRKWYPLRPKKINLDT
T2 chain 4: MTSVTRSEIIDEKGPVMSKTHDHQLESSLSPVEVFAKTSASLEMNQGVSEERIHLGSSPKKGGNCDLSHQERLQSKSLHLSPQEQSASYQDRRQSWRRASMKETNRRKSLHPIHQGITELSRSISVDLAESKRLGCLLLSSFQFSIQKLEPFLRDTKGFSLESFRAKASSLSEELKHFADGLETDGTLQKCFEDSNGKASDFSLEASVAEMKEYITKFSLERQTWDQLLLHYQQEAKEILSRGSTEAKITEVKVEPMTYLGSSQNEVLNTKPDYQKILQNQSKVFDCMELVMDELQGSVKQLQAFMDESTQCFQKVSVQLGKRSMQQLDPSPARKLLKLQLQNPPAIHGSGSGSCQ
T2 chain 5: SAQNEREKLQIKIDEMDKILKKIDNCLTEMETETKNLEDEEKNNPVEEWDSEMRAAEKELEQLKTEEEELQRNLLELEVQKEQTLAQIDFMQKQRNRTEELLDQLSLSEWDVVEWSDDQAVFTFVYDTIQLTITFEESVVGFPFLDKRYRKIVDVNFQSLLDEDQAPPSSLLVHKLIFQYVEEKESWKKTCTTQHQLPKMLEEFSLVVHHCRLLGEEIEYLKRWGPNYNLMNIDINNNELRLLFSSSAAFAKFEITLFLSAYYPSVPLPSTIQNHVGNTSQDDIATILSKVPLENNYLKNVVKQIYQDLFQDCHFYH

[7] = target: T2, Mis12C with KNL1_(2,026–2,342) bound; experiment: BLI
[8] = target: Mis12C^M3 (human, UniProt Q9H081 1-205; Q6P1K2 1-205; Q96IY1 1-281; Q9H410 1-356); experiment: ITC
[9] = target: Mis12C^M4 (human, UniProt Q9H081 1-205; Q6P1K2 1-205; Q96IY1 1-281; Q9H410 1-356); experiment: ITC
[10] = target: Mis12C^M5 (NSL1 I216A) (human, UniProt Q9H081 1-205; Q6P1K2 1-205; Q96IY1 1-281; Q9H410 1-356, I216A); experiment: ITC
[11] = target: T3, ZWINT^M1 (human, UniProt O95229 1-277); experiment: BLI; Kd2 (second site)
[12] = target: T4, ZWINT^M2 (human, UniProt O95229 1-277); experiment: BLI; Kd2 (second site)
[13] = target: T3, ZWINT^M1; experiment: BLI; Kd1
[14] = target: T4, ZWINT^M2; experiment: BLI; Kd1

Mis12C^M5 (NSL1 I216A), sequence (Q96IY1 whole entry I216A, chain 3 of 4, one chain of several): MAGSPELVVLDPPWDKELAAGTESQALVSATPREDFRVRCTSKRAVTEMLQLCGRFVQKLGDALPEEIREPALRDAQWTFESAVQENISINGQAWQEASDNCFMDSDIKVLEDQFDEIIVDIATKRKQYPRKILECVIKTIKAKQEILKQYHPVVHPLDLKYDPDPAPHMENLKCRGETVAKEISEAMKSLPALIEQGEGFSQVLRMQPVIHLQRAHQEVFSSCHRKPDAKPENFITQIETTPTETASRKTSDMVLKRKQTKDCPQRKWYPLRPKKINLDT

Kd [1]: 65.3 nM | Kd [2]: 81.8 nM
B1: ZWINT (natural protein)
chain: MEAAETEAEAAALEVLAEVAGILEPVGLQEEAELPAKILVEFVVDSQKKDKLLCSQLQVADFLQNILAQEDTAKGLDPLASEDTSRQKAIAAKEQWKELKATYREHVEAIKIGLTKALTQMEEAQRKRTQLREAFEQLQAKKQMAMEKRRAVQNQWQLQQEKHLQHLAEVSAEVRERKTGTQQELDRVFQKLGNLKQQAEQERDKLQRYQTFLQLLYTLQGKLLFPEAEAEAENLPDDKPQQPTRPQEQSTGDTMGRDPGVSFKAVGLQPAGDVNLP

koff [3]: 0.000451 s⁻¹ | Kd [4]: 45.2 nM | Kd [5]: 24.8 nM
B2: KNL1 residues 2,026–2,342 (domain or fragment)
chain: SAQNEREKLQIKIDEMDKILKKIDNCLTEMETETKNLEDEEKNNPVEEWDSEMRAAEKELEQLKTEEEELQRNLLELEVQKEQTLAQIDFMQKQRNRTEELLDQLSLSEWDVVEWSDDQAVFTFVYDTIQLTITFEESVVGFPFLDKRYRKIVDVNFQSLLDEDQAPPSSLLVHKLIFQYVEEKESWKKTCTTQHQLPKMLEEFSLVVHHCRLLGEEIEYLKRWGPNYNLMNIDINNNELRLLFSSSAAFAKFEITLFLSAYYPSVPLPSTIQNHVGNTSQDDIATILSKVPLENNYLKNVVKQIYQDLFQDCHFYH

koff [3]: 0.000582 s⁻¹ | koff [6]: 0.00024 s⁻¹ | Kd [7]: 1.15 nM
B3: Ndc80 complex (Ndc80C): NDC80^HEC1, NUF2, SPC24, SPC25 (complex)
chain 1: MKRSSVSSGGAGRLSMQELRSQDVNKQGLYTPQTKEKPTFGKLSINKPTSERKVSLFGKRTSGHGSRNSQLGIFSSSEKIKDPRPLNDKAFIQQCIRQLCEFLTENGYAHNVSMKSLQAPSVKDFLKIFTFLYGFLCPSYELPDTKFEEEVPRIFKDLGYPFALSKSSMYTVGAPHTWPHIVAALVWLIDCIKIHTAMKESSPLFDDGQPWGEETEDGIMHNKLFLDYTIKCYESFMSGADSFDEMNAELQSKLKDLFNVDAFKLESLEAKNRALNEQIARLEQEREKEPNRLESLRKLKASLQGDVQKYQAYMSNLESHSAILDQKLNGLNEEIARVELECETIKQENTRLQNIIDNQKYSVADIERINHERNELQQTINKLTKDLEAEQQKLWNEELKYARGKEAIETQLAEYHKLARKLKLIPKGAENSKGYDFEIKFNPEAGANCLVKYRAQVYVPLKELLNETEEEINKALNKKMGLEDTLEQLNAMITESKRSVRTLKEEVQKLDDLYQQKIKEAEEEDEKCASELESLEKHKHLLESTVNQGLSEAMNELDAVQREYQLVVQTTTEERRKVGNNLQRLLEMVATHVGSVEKHLEEQIAKVDREYEECMSEDLSENIKEIRDKYEKKATLIKSSEE
chain 2: METLSFPRYNVAEIVIHIRNKILTGADGKNLTKNDLYPNPKPEVLHMIYMRALQIVYGIRLEHFYMMPVNSEVMYPHLMEGFLPFSNLVTHLDSFLPICRVNDFETADILCPKAKRTSRFLSGIINFIHFREACRETYMEFLWQYKSSADKMQQLNAAHQEALMKLERLDSVPVEEQEEFKQLSDGIQELQQSLNQDFHQKTIVLQEGNSQKKSNISEKTKRLNELKLSVVSLKEIQESLKTKIVDSPEKLKNYKEKMKDTVQKLKNARQEVVEKYEIYGDSVDCLPSCQLEVQLYQKKIQDLSDNREKLASILKESLNLEDQIESDESELKKLKTEENSFKRLMIVKKEKLATAQFKINKKHEDVKQYKRTVIEDCNKVQEKRGAVYERVTTINQEIQKIKLGIQQLKDAAEREKLKSQEIFLNLKTALEKYHDGIEKAAEDSYAKIDEKTAELKRKMFKMST
chain 3: MAAFRDIEEVSQGLLSLLGANRAEAQQRRLLGRHEQVVERLLETQDGAEKQLREILTMEKEVAQSLLNAKEQVHQGGVELQQLEAGLQEAGEEDTRLKASLLQLTRELEELKEIEADLERQEKEVDEDTTVTIPSAVYVAQLYHQVSKIEWDYECEPGMVKGIHHGPSVAQPIHLDSTQLSRKFISDYLWSLVDTEW
chain 4: MVEDELALFDKSINEFWNKFKSTDTSCQMAGLRDTYKDSIKAFAEKLSVKLKEEERMVEMFLEYQNQISRQNKLIQEKKDNLLKLIAEVKGKKQELEVLTANIQDLKEEYSRKKETISTANKANAERLKRLQKSADLYKDRLGLEIRKIYGEKLQFIFTNIDPKNPESPFMFSLHLNEARDYEVSDSAPHLEGLAEFQENVRKTNNFSAFLANVRKAFTATVYN

Kd [8]: 1170 nM | Kd [9]: 451 nM | Kd [10]: 774 nM
B4: full-length SPC24/SPC25 (complex)
chain 1: MAAFRDIEEVSQGLLSLLGANRAEAQQRRLLGRHEQVVERLLETQDGAEKQLREILTMEKEVAQSLLNAKEQVHQGGVELQQLEAGLQEAGEEDTRLKASLLQLTRELEELKEIEADLERQEKEVDEDTTVTIPSAVYVAQLYHQVSKIEWDYECEPGMVKGIHHGPSVAQPIHLDSTQLSRKFISDYLWSLVDTEW
chain 2: MVEDELALFDKSINEFWNKFKSTDTSCQMAGLRDTYKDSIKAFAEKLSVKLKEEERMVEMFLEYQNQISRQNKLIQEKKDNLLKLIAEVKGKKQELEVLTANIQDLKEEYSRKKETISTANKANAERLKRLQKSADLYKDRLGLEIRKIYGEKLQFIFTNIDPKNPESPFMFSLHLNEARDYEVSDSAPHLEGLAEFQENVRKTNNFSAFLANVRKAFTATVYN

Binder: B5
Kd [11]: 25.1 nM | Kd [12]: 250 nM | Kd [13]: 235 nM | Kd [14]: 1170 nM
